In US20110166062A1 (INDIANA UNIVERSITY RESEARCH AND TECHNOLOGY, published 2011):
Bridges are numbered along the chain shown (N, C = ends). Where no end group is shown, it is not given here.

T1: GIP receptor (UniProt P48546 22-466)
T1 sequence (looked up): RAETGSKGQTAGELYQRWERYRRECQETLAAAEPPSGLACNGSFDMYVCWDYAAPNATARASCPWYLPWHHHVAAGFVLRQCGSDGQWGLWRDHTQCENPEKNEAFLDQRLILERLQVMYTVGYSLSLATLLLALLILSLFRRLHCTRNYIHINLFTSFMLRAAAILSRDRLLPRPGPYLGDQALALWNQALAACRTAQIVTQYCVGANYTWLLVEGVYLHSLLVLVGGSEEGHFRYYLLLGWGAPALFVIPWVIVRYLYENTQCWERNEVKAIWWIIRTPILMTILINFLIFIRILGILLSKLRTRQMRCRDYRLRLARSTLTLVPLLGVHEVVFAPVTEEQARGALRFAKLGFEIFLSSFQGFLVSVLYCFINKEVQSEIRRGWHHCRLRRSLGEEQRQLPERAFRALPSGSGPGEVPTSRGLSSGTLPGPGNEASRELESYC


Key:
Experiment in all cases: cell-based or functional assay
glucagon receptor = glucagon receptor (UniProt P47871 26-477, limits assumed)
glucagon receptor, sequence (P47871 26-477 limits assumed): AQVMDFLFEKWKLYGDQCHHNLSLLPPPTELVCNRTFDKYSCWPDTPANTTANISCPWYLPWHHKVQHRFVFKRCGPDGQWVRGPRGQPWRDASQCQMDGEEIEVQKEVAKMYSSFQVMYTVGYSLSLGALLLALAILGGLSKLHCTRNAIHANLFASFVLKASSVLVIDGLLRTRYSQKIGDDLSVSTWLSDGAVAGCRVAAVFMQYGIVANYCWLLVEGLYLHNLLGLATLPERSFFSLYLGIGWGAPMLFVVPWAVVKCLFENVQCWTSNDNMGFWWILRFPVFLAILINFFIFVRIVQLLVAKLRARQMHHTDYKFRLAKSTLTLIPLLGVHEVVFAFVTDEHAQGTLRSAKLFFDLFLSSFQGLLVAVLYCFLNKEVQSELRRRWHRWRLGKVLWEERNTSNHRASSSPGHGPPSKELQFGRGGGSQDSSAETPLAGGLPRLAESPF

GLP-1 receptor = GLP-1 receptor (UniProt P43220 24-463, limits assumed)
GIP receptor = target: T1, GIP receptor

Binder	EC50 (glucagon receptor) [nM]	relative activity (glucagon receptor) [%]	EC50 (GLP-1 receptor) [nM]	relative activity (GLP-1 receptor) [%]	EC50 (GIP receptor) [nM]	relative activity (GIP receptor) [%]
YSQGTFTSDYSIYLDEQAAKEFVNWLLAGGPSSGAPPPS-NH2 (lactam 16-20; N-terminus assumed; SMILES CC[C@H](C)[C@H](NC(=O)[C@H](CO)NC(=O)[C@H](Cc1ccc(O)cc1)NC(=O)[C@H](CC(=O)O)NC(=O)[C@H](CO)NC(=O)[C@@H](NC(=O)[C@H](Cc1ccccc1)NC(=O)[C@@H](NC(=O)CNC(=O)[C@H](CCC(N)=O)NC(=O)[C@H](CO)NC(=O)[C@@H](N)Cc1ccc(O)cc1)[C@@H](C)O)[C@@H](C)O)C(=O)N[C@@H](Cc1ccc(O)cc1)C(=O)N[C@@H](CC(C)C)C(=O)N[C@@H](CC(=O)O)C(=O)N[C@H]1CCC(=O)NCCCC[C@@H](C(=O)N[C@@H](CCC(=O)O)C(=O)N[C@@H](Cc2ccccc2)C(=O)N[C@H](C(=O)N[C@@H](CC(N)=O)C(=O)N[C@@H](Cc2c[nH]c3ccccc23)C(=O)N[C@@H](CC(C)C)C(=O)N[C@@H](CC(C)C)C(=O)N[C@@H](C)C(=O)NCC(=O)NCC(=O)N2CCC[C@H]2C(=O)N[C@@H](CO)C(=O)N[C@@H](CO)C(=O)NCC(=O)N[C@@H](C)C(=O)N2CCC[C@H]2C(=O)N2CCC[C@H]2C(=O)N2CCC[C@H]2C(=O)N[C@@H](CO)C(N)=O)C(C)C)NC(=O)[C@H](C)NC(=O)[C@H](C)NC(=O)[C@H](CCC(N)=O)NC1=O) [mt-140]	0.149	131	0.068	49.6	0.366	12.8
YSQGTFTSDYSKYMDEQAAKEFVNWLLAGGPSSGAPPPS-NH2 (lactam 16-20; N-terminus assumed; SMILES CSCC[C@H](NC(=O)[C@H](Cc1ccc(O)cc1)NC(=O)[C@H](CCCCN)NC(=O)[C@H](CO)NC(=O)[C@H](Cc1ccc(O)cc1)NC(=O)[C@H](CC(=O)O)NC(=O)[C@H](CO)NC(=O)[C@@H](NC(=O)[C@H](Cc1ccccc1)NC(=O)[C@@H](NC(=O)CNC(=O)[C@H](CCC(N)=O)NC(=O)[C@H](CO)NC(=O)[C@@H](N)Cc1ccc(O)cc1)[C@@H](C)O)[C@@H](C)O)C(=O)N[C@@H](CC(=O)O)C(=O)N[C@H]1CCC(=O)NCCCC[C@@H](C(=O)N[C@@H](CCC(=O)O)C(=O)N[C@@H](Cc2ccccc2)C(=O)N[C@H](C(=O)N[C@@H](CC(N)=O)C(=O)N[C@@H](Cc2c[nH]c3ccccc23)C(=O)N[C@@H](CC(C)C)C(=O)N[C@@H](CC(C)C)C(=O)N[C@@H](C)C(=O)NCC(=O)NCC(=O)N2CCC[C@H]2C(=O)N[C@@H](CO)C(=O)N[C@@H](CO)C(=O)NCC(=O)N[C@@H](C)C(=O)N2CCC[C@H]2C(=O)N2CCC[C@H]2C(=O)N2CCC[C@H]2C(=O)N[C@@H](CO)C(N)=O)C(C)C)NC(=O)[C@H](C)NC(=O)[C@H](C)NC(=O)[C@H](CCC(N)=O)NC1=O) [mt-141]	0.15	269	0.16	36.8	0.747	10
YSQGTFTSDYSKYLDEIHQKDFIAWLMNGGPSSGAPPPS-NH2 (lactam 16-20; N-terminus assumed; SMILES CC[C@H](C)[C@H](NC(=O)[C@H](Cc1ccccc1)NC(=O)[C@H](CC(=O)O)NC(=O)[C@@H]1CCCCNC(=O)CC[C@H](NC(=O)[C@H](CC(=O)O)NC(=O)[C@H](CC(C)C)NC(=O)[C@H](Cc2ccc(O)cc2)NC(=O)[C@H](CCCCN)NC(=O)[C@H](CO)NC(=O)[C@H](Cc2ccc(O)cc2)NC(=O)[C@H](CC(=O)O)NC(=O)[C@H](CO)NC(=O)[C@@H](NC(=O)[C@H](Cc2ccccc2)NC(=O)[C@@H](NC(=O)CNC(=O)[C@H](CCC(N)=O)NC(=O)[C@H](CO)NC(=O)[C@@H](N)Cc2ccc(O)cc2)[C@@H](C)O)[C@@H](C)O)C(=O)N[C@@H]([C@@H](C)CC)C(=O)N[C@@H](Cc2c[nH]cn2)C(=O)N[C@@H](CCC(N)=O)C(=O)N1)C(=O)N[C@@H](C)C(=O)N[C@@H](Cc1c[nH]c2ccccc12)C(=O)N[C@@H](CC(C)C)C(=O)N[C@@H](CCSC)C(=O)N[C@@H](CC(N)=O)C(=O)NCC(=O)NCC(=O)N1CCC[C@H]1C(=O)N[C@@H](CO)C(=O)N[C@@H](CO)C(=O)NCC(=O)N[C@@H](C)C(=O)N1CCC[C@H]1C(=O)N1CCC[C@H]1C(=O)N1CCC[C@H]1C(=O)N[C@@H](CO)C(N)=O) [mt-129]	0.952	17.3	4.07	1.12	2.88	2.06

Other lines, results leading:

EC50 (glucagon receptor) [nM]	relative activity (glucagon receptor) [%]	EC50 (GLP-1 receptor) [nM]	relative activity (GLP-1 receptor) [%]	EC50 (GIP receptor) [nM]	relative activity (GIP receptor) [%]	Binder
2.27	16.8	0.036	142	0.48	18.5	YAQGTFTSDYSIYMDEQAAKEFVNWLLAGGPSSGAPPPS-NH2 (lactam 16-20; N-terminus assumed; SMILES CC[C@H](C)[C@H](NC(=O)[C@H](CO)NC(=O)[C@H](Cc1ccc(O)cc1)NC(=O)[C@H](CC(=O)O)NC(=O)[C@H](CO)NC(=O)[C@@H](NC(=O)[C@H](Cc1ccccc1)NC(=O)[C@@H](NC(=O)CNC(=O)[C@H](CCC(N)=O)NC(=O)[C@H](C)NC(=O)[C@@H](N)Cc1ccc(O)cc1)[C@@H](C)O)[C@@H](C)O)C(=O)N[C@@H](Cc1ccc(O)cc1)C(=O)N[C@@H](CCSC)C(=O)N[C@@H](CC(=O)O)C(=O)N[C@H]1CCC(=O)NCCCC[C@@H](C(=O)N[C@@H](CCC(=O)O)C(=O)N[C@@H](Cc2ccccc2)C(=O)N[C@H](C(=O)N[C@@H](CC(N)=O)C(=O)N[C@@H](Cc2c[nH]c3ccccc23)C(=O)N[C@@H](CC(C)C)C(=O)N[C@@H](CC(C)C)C(=O)N[C@@H](C)C(=O)NCC(=O)NCC(=O)N2CCC[C@H]2C(=O)N[C@@H](CO)C(=O)N[C@@H](CO)C(=O)NCC(=O)N[C@@H](C)C(=O)N2CCC[C@H]2C(=O)N2CCC[C@H]2C(=O)N2CCC[C@H]2C(=O)N[C@@H](CO)C(N)=O)C(C)C)NC(=O)[C@H](C)NC(=O)[C@H](C)NC(=O)[C@H](CCC(N)=O)NC1=O) [mt-144]
0.116	90.5	0.105	33.9	0.144	43.1	YSQGTFTSDYSIYLDEQAAKEFIAWLLAGGPSSGAPPPS-NH2 (lactam 16-20; N-terminus assumed; SMILES CC[C@H](C)[C@H](NC(=O)[C@H](Cc1ccccc1)NC(=O)[C@H](CCC(=O)O)NC(=O)[C@@H]1CCCCNC(=O)CC[C@H](NC(=O)[C@H](CC(=O)O)NC(=O)[C@H](CC(C)C)NC(=O)[C@H](Cc2ccc(O)cc2)NC(=O)[C@@H](NC(=O)[C@H](CO)NC(=O)[C@H](Cc2ccc(O)cc2)NC(=O)[C@H](CC(=O)O)NC(=O)[C@H](CO)NC(=O)[C@@H](NC(=O)[C@H](Cc2ccccc2)NC(=O)[C@@H](NC(=O)CNC(=O)[C@H](CCC(N)=O)NC(=O)[C@H](CO)NC(=O)[C@@H](N)Cc2ccc(O)cc2)[C@@H](C)O)[C@@H](C)O)[C@@H](C)CC)C(=O)N[C@@H](CCC(N)=O)C(=O)N[C@@H](C)C(=O)N[C@@H](C)C(=O)N1)C(=O)N[C@@H](C)C(=O)N[C@@H](Cc1c[nH]c2ccccc12)C(=O)N[C@@H](CC(C)C)C(=O)N[C@@H](CC(C)C)C(=O)N[C@@H](C)C(=O)NCC(=O)NCC(=O)N1CCC[C@H]1C(=O)N[C@@H](CO)C(=O)N[C@@H](CO)C(=O)NCC(=O)N[C@@H](C)C(=O)N1CCC[C@H]1C(=O)N1CCC[C@H]1C(=O)N1CCC[C@H]1C(=O)N[C@@H](CO)C(N)=O) [mt-147]
0.086	497	1.48	4.53	2.63	1.82	YSQGTFTSDYSKYLDERRAKEFVNWLLAGGPSSGAPPPS-NH2 (lactam 16-20; N-terminus assumed; SMILES CC(C)C[C@H](NC(=O)[C@H](CC(C)C)NC(=O)[C@H](Cc1c[nH]c2ccccc12)NC(=O)[C@H](CC(N)=O)NC(=O)[C@@H](NC(=O)[C@H](Cc1ccccc1)NC(=O)[C@H](CCC(=O)O)NC(=O)[C@@H]1CCCCNC(=O)CC[C@H](NC(=O)[C@H](CC(=O)O)NC(=O)[C@H](CC(C)C)NC(=O)[C@H](Cc2ccc(O)cc2)NC(=O)[C@H](CCCCN)NC(=O)[C@H](CO)NC(=O)[C@H](Cc2ccc(O)cc2)NC(=O)[C@H](CC(=O)O)NC(=O)[C@H](CO)NC(=O)[C@@H](NC(=O)[C@H](Cc2ccccc2)NC(=O)[C@@H](NC(=O)CNC(=O)[C@H](CCC(N)=O)NC(=O)[C@H](CO)NC(=O)[C@@H](N)Cc2ccc(O)cc2)[C@@H](C)O)[C@@H](C)O)C(=O)N[C@@H](CCCNC(=N)N)C(=O)N[C@@H](CCCNC(=N)N)C(=O)N[C@@H](C)C(=O)N1)C(C)C)C(=O)N[C@@H](C)C(=O)NCC(=O)NCC(=O)N1CCC[C@H]1C(=O)N[C@@H](CO)C(=O)N[C@@H](CO)C(=O)NCC(=O)N[C@@H](C)C(=O)N1CCC[C@H]1C(=O)N1CCC[C@H]1C(=O)N1CCC[C@H]1C(=O)N[C@@H](CO)C(N)=O) [mt-143]
